According to article PMC9929473, “Ensembles of human myosin-19 bound to calmodulin and regulatory light chain RLC12B drive multimicron transport” (The Journal of Biological Chemistry, 2023):

Experiments:
[1] = molecular target: Myo19-3xIQ-BioTag (human myosin-19 motor domain and IQ region with N-terminal FLAG tag and C-terminal biotin tag) (human) (UniProt Q96H55); test: co-sedimentation; as a4 with 1.1 mM CaCl2 added (0.1 mM free Ca2+)
[2] = molecular target: Myo19-3xIQ-BioTag (human myosin-19 motor domain and IQ region with N-terminal FLAG tag and C-terminal biotin tag) (human) (UniProt Q96H55)
[3] = molecular target: Myo19-3xIQ-BioTag (human myosin-19 motor domain and IQ region with N-terminal FLAG tag and C-terminal biotin tag) (human) (UniProt Q96H55); test: co-sedimentation; about 2 μM Myo19-3xIQ-BioTag preparation, 4 μM F-actin, 10 μM CaM in S-Buffer (15 mM Hepes pH 7.5, 7 mM imidazole, 125 mM NaCl, 5 mM MgCl2, 1 mM EGTA, 1 mM DTT), 200,000g 20 min; pellet on SDS-PAGE, gel densitometry with BSA, RLC12B and CaM standards; no calcium
[4] = molecular target: Myo19-3xIQ-BioTag (human myosin-19 motor domain and IQ region with N-terminal FLAG tag and C-terminal biotin tag) (human) (UniProt Q96H55); remark: listed apart in the source
[5] = molecular target: Myo19-3xIQ-BioTag (human myosin-19 motor domain and IQ region with N-terminal FLAG tag and C-terminal biotin tag) (human) (UniProt Q96H55); remark: listed apart in the source
[6] = molecular target: Myo19-3xIQ-BioTag (human myosin-19 motor domain and IQ region with N-terminal FLAG tag and C-terminal biotin tag) (human) (UniProt Q96H55); test: SEC-MALS; complex fixed with glutaraldehyde during 5 to 30% glycerol gradient centrifugation (GraFix; 20 mM Hepes pH 7.5, 0.2 M NaCl, 5 mM MgCl2, 1 mM EGTA, 4 °C, without calcium), then TSKgel SuperSW2000 with MALS
[7] = molecular target: T1, Myo19-3xIQ-BioTag (human myosin-19 motor domain and IQ region with N-terminal FLAG tag and C-terminal biotin … (human, UniProt Q96H55 1-851, biotinylated on the BioTag during expression)); test: as above; details: both partners purified
T1 construct: also called HC; biotinylated Myo19; not shown: biotin tag (BioTag), C-terminal, kept

[8] = molecular target: T1, Myo19-3xIQ-BioTag (human myosin-19 …); test: co-sedimentation; about 2 μM Myo19-3xIQ-BioTag preparation, 4 μM F-actin, 10 μM CaM in S-Buffer (15 mM Hepes pH 7.5, 7 mM imidazole, 125 mM NaCl, 5 mM MgCl2, 1 mM EGTA, 1 mM DTT), 200,000g 20 min; pellet on SDS-PAGE, gel densitometry with BSA, RLC12B and CaM standards; no calcium; details: both partners purified

Molecule: Calmodulin (CaM) coexpressed with Myo19-3xIQ-BioTag in Sf9 cells and added in excess (from UniProt P0DP23 1-149) (natural protein)
- CaM:RLC12B ratio bound to Myo19-3xIQ (CaM per RLC12B) [1]: 2.8
- actin gliding speed of Myo19-3xIQ-BioTag (copurified with RLC12B and CaM) against added CaM, 37 °C, no calcium; EC50 of a hyperbolic fit [2]: 700 nM
- CaM to RLC12B ratio bound to Myo19-3xIQ (CaM per RLC12B) [3]: 1.9
- stoichiometry N [3]: 3.4
- actin gliding speed with 0.1 mM free calcium against added CaM (0.1 to 10 μM CaM–Ca2+); highest speed at 4 μM [4]: 210 nm/s
- actin gliding speed of Myo19 coexpressed with CaM alone against added CaM in the presence of 1 μM RLC12B; EC50 of a hyperbolic fit [5]: 200 nM
- actin gliding speed of Myo19 coexpressed with CaM alone against added CaM; EC50 of a hyperbolic fit [5]: 200 nM
- stoichiometry N [6]: 2

Molecule: RLC12B purified from E. coli (MBP removed by TEV protease) (from UniProt O14950 1-172) (natural protein)
- actin gliding speed of Myo19-3xIQ-BioTag (copurified with RLC12B and CaM) against added RLC12B alone, 37 °C; maximal speed at 1 μM RLC12B [2]: 150 nm/s
- actin gliding speed with 4 μM CaM fixed against increasing RLC12B; IC50 of an inhibition fit [2]: 200 nM
- actin gliding speed when 1 μM RLC12B was added in solution in the presence of CaM [5]: 250 nm/s

B1: RLC12B coexpressed with Myo19-3xIQ-BioTag in Sf9 cells (natural protein, human, UniProt O14950 1-172, looked up)
chain: MSSKKAKTKTTKKRPQRATSNVFAMFDQSQIQEFKEAFNMIDQNRDGFIDKEDLHDMLASLGKNPTDAYLDAMMNEAPGPINFTMFLTMFGEKLNGTDPEDVIRNAFACFDEEATGTIQEDYLRELLTTMGDRFTDEEVDELYREAPIDKKGNFNYIEFTRILKHGAKDKDD
notes: Myosin regulatory light chain 12B (RLC12B), O14950-1; also called MYL12B; source: Sf9-baculovirus, coexpressed and copurified with Myo19-3xIQ-BioTag
- stoichiometry N [7]: 1
- stoichiometry N [8]: 1.8
